From PMC7727368 come the findings set out here.

The target in this experiment is Fasciola hepatica profilin (FhProfilin), recombinant (Fasciola hepatica). Description: SEC; Superdex S75 16/60 in TBS (10 mM Tris-HCl, 300 mM NaCl, pH 8.0), 1 ml/min; elution volume compared with proteins of known molecular weight.

One may read the stoichiometry N as a count of units in the complex or per binding partner. For “Fasciola hepatica profilin (FhProfilin), recombinant (natural protein)”, the stoichiometry N stood at 2.
